The record followed here is PMC11268888, “Glycan-shielded homodimer structure and dynamical features of the canine distemper virus hemagglutinin relevant for viral entry and efficient vaccination” (eLife, 2024).

Broadly, the Kd is the equilibrium constant for the complex coming apart. Low readings indicate tighter binding, high ones weaker binding.

For test [1], the target named is T1, ectodomain of dog Nectin-4 (residues 1-332) (dog).
T1 construct: also called dNectin-4; PVRL4
The test can be described thus: SPR; […]; HBS-EP (10 mM HEPES pH 7.4, 150 mM NaCl, 3 mM EDTA, 0.005% Surfactant P20); […]. The following applies: both partners purified.

The target in test [2] is T2, ectodomain of human Nectin-4 (residues 1-333) (human, UniProt Q96NY8 32-333).
T2 construct: also called hNectin-4; PVRL4
T2 sequence (looked up): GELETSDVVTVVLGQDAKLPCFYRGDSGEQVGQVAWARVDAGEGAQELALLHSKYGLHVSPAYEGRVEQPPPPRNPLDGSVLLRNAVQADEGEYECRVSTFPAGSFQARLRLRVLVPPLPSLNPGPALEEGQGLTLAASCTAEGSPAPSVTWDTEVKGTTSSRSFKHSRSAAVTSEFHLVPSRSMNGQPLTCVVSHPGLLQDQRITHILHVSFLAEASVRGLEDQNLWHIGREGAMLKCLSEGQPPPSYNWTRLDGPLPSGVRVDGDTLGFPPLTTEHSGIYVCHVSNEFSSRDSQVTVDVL
Described as above. The following applies: both partners purified.

B1: MeV-H (measles virus hemagglutinin), wild-type strain (domain or fragment)
chain: DYDQYCADVAAEELMNALVNSTLLEARATNQFLAVSKGNCSGPTTIRGQFSNMSLSLLDLYLSRGYNVSSIVTMTSQGMYGGTYLVGKPNLSSKGSELSQLSMHRVFEVGVIRNPGLGAPVFHMTNYFEQPVSNDFSNCMVALGELKFAALCHREDSITIPYQGSGKGVSFQLVKLGVWKSPTDMRSWVPLSTDDPVIDRLYLSSHRGVIADNQAKWAVPTTRTDDKLRMETCFQQACKGKNQALCENPEWAPLKDNRIPSYGVLSVNLSLTVELKIKIASGFGPLITHGSGMDLYKTNHNNVYWLTIPPMKNLALGVINTLEWIPRFKVSPNLFTVPIKEAGEDCHAPTYLPAEVDGDVKLSSNLVILPGQDLQYVLATYDTSRVEHAVVYYVYSPSRSFSYFYPFRLPIKGVPIELQVECFTWDKKLWCRHFCVLADSESGGHITHSGMVGMGVSCTVTREDGTNRR
With B1, the results for the Ka in test [1] and in test [2] were 739000 M⁻¹ and 1.48e+06 M⁻¹, respectively. Also, the Kd came to 1350 nM in test [1] and 674 nM in test [2].
